Results reported in paper PMC9234330, “Identification of Two Novel Fluorinases From Amycolatopsis sp. CA-128772 and Methanosaeta sp. PtaU1.Bin055 and a Mutant With Improved Catalytic Efficiency With Native Substrate” (Frontiers in Bioengineering and Biotechnology, 2022).

Substrate: C[S+](CC[C@H](N)C(=O)O)C[C@H]1O[C@@H](n2cnc3c(N)ncnc32)[C@H](O)[C@@H]1O
Experiment: purified protein
Type: biochemical, Amycolatopsis sp. CA-128772
Details: KF 100 mM (methods text says 200 mM), Tris-HCl 50 mM pH 7.8, 50 °C, 10 min

B1: Fam (Amycolatopsis sp. CA-128772) (protein)
chain: MAKPSRPIIAFMSDLGITDDSVAQCKGLMLSVCPDVTIVDVCHTMKPWDVEEGARYIVDLPRLFPEGTVFATTTYPATGTTTRSVALRIKQAAKGGARGQWAGSGAGFERAEGSYIYIAPNNGLLTSVIEEHGYVEAYEVSSTEVIPEQPEPTFYSREMVALPSAHLAAGFPLEKVGRPLADDEIVRFERAKPAQNDDGELVGVVTAIDHPFGNVWTNIHREDLEKLGAGYGTRLRITLDEVLPFDLPLSPTFADAGPIGTPVAYLSSRGYLALARNAASLAYPYNLNAGISVRVVAA
- Km: 77.17 ± 14.10 µM
- kcat: 0.00285 s⁻¹
- kcat/Km: 37 M⁻¹ s⁻¹
